Reference: patent US20040067903A1 (published 2004)

Legend:
Experiment in all cases: GST pull-down from GDP+AlF4- treated human platelet lysate, western blot
[1] = target: T1, Gαq (endogenous, human platelet lysate) (human, UniProt P50148 1-359)
T1 construct: mature; also called Gαq/11; alpha subunit detected by antibodies directed against Gαq/11
T1 sequence (looked up): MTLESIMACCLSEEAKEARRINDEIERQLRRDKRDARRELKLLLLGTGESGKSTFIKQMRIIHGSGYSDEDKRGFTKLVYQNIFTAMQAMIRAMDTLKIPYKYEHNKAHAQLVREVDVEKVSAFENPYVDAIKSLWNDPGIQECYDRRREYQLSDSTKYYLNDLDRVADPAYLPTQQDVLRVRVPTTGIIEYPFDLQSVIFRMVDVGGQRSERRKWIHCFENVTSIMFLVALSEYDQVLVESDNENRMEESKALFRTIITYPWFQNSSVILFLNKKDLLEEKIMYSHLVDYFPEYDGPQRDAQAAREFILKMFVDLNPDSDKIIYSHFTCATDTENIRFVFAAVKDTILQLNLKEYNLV
Experimental: (§1) Bound antibody was detected using goat […] (BioRad, Hercules, Calif.) and Supersignal West Pico ECL reagent (Pierce, Rockford, Ill.).
(§2) In order to determine the target alpha subunits of RGS18, binding experiments were performed using GST-RGS18 as prepared in Example 4 and lysates of human platelets. A similar method has been used to determine the binding specificity of hRGS16 using lysates from Jurkat cells (164). […] For these experiments, platelets were lysed in a Triton X-100 containing buffer and resuspended to 1 mg/ml. The lysate was then treated with GDP, which holds the alpha subunit in the GDP-bound “in-activated” state, or GDP+AlF₄⁻ that mimics the transition state of the Gα subunit. Recombinant GST-RGS18 bound to Sepharose-4 beads was added to the treated lysates, incubated and washed several times. Bound protein was eluted in Laemmli buffer and subjected to SDS-PAGE followed by western blot analysis. A panel of G protein alpha subunit specific antibodies was used to determine which alpha subunits bind to RGS18. […] In contrast, in lysates that have been treated with GDP+AlF₄⁻, RGS18 binds a significant amount of alpha subunit detected by antibodies directed against G_{αi1/2}, G_{α0/i3} and G_{αq/11}. […] Neither GST nor Sepharose 4B alone binds to any of these alpha subunits in either GDP or GDP+AlF₄⁻ treated platelet lysates (data not shown). The binding selectivity of RGS18 is consistent with that found for other RGS proteins which selectively bind to members of the Gαi family and/or Gαq family (14).

[2] = target: T2, Gαz (endogenous, human platelet lysate) (human, UniProt P19086 2-355)
T2 construct: mature; also called printed once as Gα2
Experimental: as §1, §2

[3] = target: T3, Gα12 (endogenous, human platelet lysate) (human, UniProt Q03113 1-381)
T3 construct: mature
T3 sequence (looked up): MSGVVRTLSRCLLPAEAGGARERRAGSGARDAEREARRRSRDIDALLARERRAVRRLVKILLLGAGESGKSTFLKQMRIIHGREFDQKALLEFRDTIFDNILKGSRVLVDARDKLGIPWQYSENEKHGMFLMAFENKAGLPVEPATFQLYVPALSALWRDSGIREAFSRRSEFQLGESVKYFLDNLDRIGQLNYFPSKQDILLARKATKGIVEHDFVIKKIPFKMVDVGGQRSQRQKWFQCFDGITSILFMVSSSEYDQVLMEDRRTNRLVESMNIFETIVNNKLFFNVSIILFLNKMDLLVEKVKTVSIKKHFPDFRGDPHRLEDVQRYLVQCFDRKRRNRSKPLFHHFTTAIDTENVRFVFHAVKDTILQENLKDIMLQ
Experimental: as §1, §2

[4] = target: T4, Gαs (endogenous, human platelet lysate) (human, UniProt P63092 2-394)
T4 construct: mature
Experimental: as §1, §2

T4 sequence (P63092 2-394): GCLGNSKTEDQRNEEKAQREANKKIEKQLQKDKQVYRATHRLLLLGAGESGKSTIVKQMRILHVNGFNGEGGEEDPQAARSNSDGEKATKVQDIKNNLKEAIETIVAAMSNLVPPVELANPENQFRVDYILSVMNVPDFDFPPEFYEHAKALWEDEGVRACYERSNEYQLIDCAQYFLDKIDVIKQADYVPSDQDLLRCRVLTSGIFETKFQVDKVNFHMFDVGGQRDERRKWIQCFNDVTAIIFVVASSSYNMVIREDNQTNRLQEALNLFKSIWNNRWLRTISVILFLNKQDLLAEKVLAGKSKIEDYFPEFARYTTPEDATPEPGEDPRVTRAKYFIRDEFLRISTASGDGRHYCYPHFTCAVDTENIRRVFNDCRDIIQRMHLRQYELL
T2 sequence (P19086 2-355): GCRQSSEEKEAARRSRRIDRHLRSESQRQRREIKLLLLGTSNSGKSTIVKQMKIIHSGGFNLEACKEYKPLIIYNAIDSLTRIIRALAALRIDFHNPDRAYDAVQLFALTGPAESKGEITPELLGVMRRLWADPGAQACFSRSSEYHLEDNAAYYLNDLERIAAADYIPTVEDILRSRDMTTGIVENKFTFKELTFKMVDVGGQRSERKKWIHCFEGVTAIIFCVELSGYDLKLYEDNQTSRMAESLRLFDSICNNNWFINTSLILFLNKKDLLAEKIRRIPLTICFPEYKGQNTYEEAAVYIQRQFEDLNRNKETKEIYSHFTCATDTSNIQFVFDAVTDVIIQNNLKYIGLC

B1: GST-RGS18 fusion protein coupled to glutathione-Sepharose 4B (other)
chain: METTLLFFSQINMCESKEKTFFKLIHGSGKEETSKEAKIRAKEKRNRLSLLVQKPEFHEDTRSSRSGHLAKETRVSPEEAVKWGESFDKLLSHRDGLEAFTRFLKTEFSEENIEFWIACEDFKKSKGPQQIHLKAKAIYEKFIQTDAPKEVNLDFHTKEVITNSITQPTLHSFDAAQSRVYQLMEQDSYTRFLKSDIYLDLMEGRPQRPTNLRRRSRSFTCNEFQDVQSDVAIWL
notes: The sense primer carries a few nucleotides upstream of the ATG, so a short extra linker between GST and Met1 is likely; also called recombinant GST-RGS18; GST-tagged fusion protein of RGS18; not shown: glutathione S-transferase (GST) tag encoded by plasmid pGEX-5X-1, N-terminal to RGS18 (in-frame Bam HI fusion); the fili
binding result [1]: binds | binding result [2]: no binding | binding result [3]: no binding | binding result [4]: no binding
